Experimental data: the supplement of paper PMC10567573

B1: RAB40A (parent)
chain: NWLGRPSKVLSLQDLCCRTIVSCT
B2: CLCN6 (parent)
chain: MAGCRGSLCCCCRWCCCCGERETR

Variants of: B1
Experiment: protein stability index of a GFP-peptide fusion (GPS, HEK-293T) (PSI 1-6); higher = more stable
Details: c terminus: a fixed tail appended
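Also: lentivirally expressed fusions sorted by FACS into six bins by GFP to DsRed ratio, PSI derived from sequencing read proportions per bin multiplied by bin number.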

Protein stability index, by site and new letter:
N1: C 2.02; A 2.04; D 2.12

Variants of: B2
Experiment: as above
Details: c terminus: a fixed tail appended

Protein stability index of substitutions, site by site:
C10: T 3.66; Y 1.88; D 1.24; H 1.69; N 1.7; K 2.07; A 1.42; M 1.28; I 1.79; F 1.36; P 1.45; W 1.69; Q 1.54
C15: V 2.08; H 2.6; Y 1.36; I 1.87; D 1.71; P 1.5; S 2; N 1.76; L 2.74; M 1.65; A 1.97; K 1.82; Q 2.39; F 2.99; G 2.04
C16: P 1.33; T 1.86; A 2.12; V 2.02; R 1.28; W 2.86; E 2.22; S 1; I 2.23; K 1.65; D 2.66; L 1.55; H 1.47
W14: Y 1.55; G 2.23; Q 2.47; R 2.22; A 1.89; M 1.14; T 3.2; H 2.06; K 2.32; P 2.33; F 1.95; L 3.15; E 2.08; C 1.53; N 2.06
G3: N 1.5; E 2.09; Q 1.31; Y 2.37; K 1.52; I 1.44; W 1.9; V 1.15; P 1.27; F 2.11; M 1.99; D 1.8; R 2.1
T23: S 2.36; W 2.78; D 2.15; Y 1.79; C 2.73; Q 1.8; G 1.78; N 2.15; R 1.77; M 1.87; P 1.83
R24: N 2.74; Q 2.54; S 2.57; P 2.38; E 2.95; F 1.79; D 2.79; M 1.91; L 2.73; C 3.05; K 2.78; Y 2.44; T 2.71; G 2.44; H 2.55; I 1.87
E20: Y 1.89; C 2.16; G 2.24; Q 1.55; D 2.27; I 1.55; V 1.93; S 2.25; A 1.96; W 1.11; T 1.01; N 2.36; R 2.33; F 1.55; K 2.22; H 1.56; L 2.06
A2: Y 1.98; V 1.46; Q 1.74
C9: R 1.28; I 1.76; G 2.23; Q 2.64; N 1.67; T 2.16; D 1.18; E 1.45; F 1.77; W 2.65; M 2.65; L 1.64; A 3.15; P 1.69; K 1.77; H 3.07; Y 1.69
G19: D 2.22; I 1.45; Y 2.41; K 1.8; N 1.44; W 1.66; F 2.53; C 1.83; T 2.02; A 1.49; P 2.17; E 1.86; H 1.15; M 2.34; Q 1.29
E22: D 1.92; T 2.09; K 1.49; S 1.65; Q 1.83; L 2.3; I 2.15; R 1.69; N 1.48; M 1.65; C 1.89; P 2.12; H 1.73; F 2.16
R5: T 1.44; D 1.38; F 2.41; M 1.38; G 1.49; Q 2.33; P 1.29; W 1.98; C 2.33; Y 3.45; K 3.21; A 1.98; I 1.92; E 1.34
R13: N 2.4; M 2.13; A 2.01; I 1.3; T 1.95; P 1.76; W 3.64; C 2.02; L 2.4; Y 2.57; Q 1.79; F 2.78; E 2.4; K 1.1; H 2.06; V 1.78; S 1.94; G 2.27
C11: L 3.23; K 1.17; F 2.72; I 1.68; G 3.4; S 1.77; N 2.15; Y 2; H 1.3; T 2.24; M 1.84; V 1.41; A 2.42; R 1.97; W 2.26; E 2.27; D 2.23; Q 1.9
G6: Q 2.28; P 1.58; F 1.92; L 1.32; D 2.36; M 1.41; Y 1.89; T 1.59; A 1.83; H 1.86; W 2.54; I 2.06; V 1.37; S 1.82; R 2.52; N 1.72; E 2.38
C4: R 2.33; W 1.79; G 1.45; I 1.61; Y 2.12; E 2.58; D 2.24; F 2.4; S 1.69; L 2.74; K 2.35; H 2.07; A 1.84
L8: T 1.42; D 1.17; G 2.1; K 1.53; V 2.21; I 1.32; N 1.42; S 1.22; Q 1.29; F 1.1; C 1.54; R 2.16; E 1.83
S7: N 1.09; I 2.55; P 2.19; R 1.37; F 1.91; L 1.9; Y 1.43; Q 1.49; C 2.52; K 1.5; H 1.89; T 1.77; W 2.47; A 1.5
C17: P 1.8; E 1.8; Y 1.97; D 1.96; T 1.27; A 2.48; F 2.29; Q 1.09; R 2.67; K 1.89; I 1.62; S 1.45; W 2.41; L 2.55; N 1.52; V 1.41
R21: W 1.52; D 2.82; M 1.08; Y 2.8; F 1.06; N 1.87; E 2.27; Q 1.39; A 2.37; C 2.56; I 1.5; T 2.77; V 1.66; S 2.18; L 1.76; K 1.79
C12: T 2.59; S 1.96; M 2.19; V 1.94; N 2.9; R 1.95; F 3.72; K 1.89; D 2.35; I 2.88; H 1.52; L 2.86; G 3.2; Y 2.23; P 1.66
C18: D 2.77; A 1.26; G 1.79; Y 1.84; W 3.21; H 2.06; T 1.86; P 1.8; L 2.49; N 1.49; M 1.42; Q 2.58; S 2.47; V 1.3; K 1.85
